Data from patent US20250027071A1.
Read-outs that look alike come from different tables or passages of the source.

What was measured:
Aβ (1-40) peptide [1] = test: cell-based or functional assay
[2] = target: TGFBIp G623R peptide (23-amino acid peptide from the 4th FAS1 domain of TGFBIp with the substitution G623R); test: cell-based or functional assay
Aβ (1-40) peptide [3] = tested on: Aβ (1-40) peptide
[4] = tested on: TGFBIp G623R peptide (23-amino acid peptide from the 4th FAS1 domain of TGFBIp with the substitution G623R)
[5] = target: TGFBIp G623R peptide (23-amino acid peptide from the 4th FAS1 domain of TGFBIp with the substitution G623R); test: cell-based or functional assay; remark: listed apart in the source

Molecule	ThT fluorescence intensity relative to the G623R control after 48 h (fibrillation inhibition assay, 10 µM L-PGDS : 50 µM monomeric peptide) [2] [%]	ThT disaggregation assay of mature Aβ (1-40) fibrils, 24 h (Aβ (1-40) peptide [3])	ThT fluorescence relative to untreated G623R fibrils after 48 h (disaggregation assay, 10 µM L-PGDS : 50 µM fibrils) [4]	also measured
RA L-PGDS (K58R+C65A double mutant of truncated L-PGDS) (enzyme)	51.4	–	–	ThT fluorescence relative to Aβ (1-40) control (inhibitory assay, 24 h) (Aβ (1-40) peptide [1]): 96.1%
C65A L-PGDS (C65A single mutant of truncated L-PGDS) (enzyme)	102	–	–	–
RA L-PGDS (K58R+C65A double mutant of truncated L-PGDS)	–	significant (p<0.05) retention of disaggregation activity across all L-PGDS mutants after 24 h of incubation	72.78%±20.42% (SD)	ThT assay of Tau VK26 aggregation (100 µM peptide with 5 µM or 10 µM RA L-PGDS) (Tau peptide VK26): RA L-PGDS almost completely inhibited the aggregation of the Tau protein; fibril length from TEM micrographs after disaggregation treatment [4]: RA-L-PGDS treatment did indeed produce shorter fibrils as opposed to WT L-PGDS
C65A L-PGDS (C65A single mutant of truncated L-PGDS)	–	significant (p<0.05) retention of disaggregation activity across all L-PGDS mutants after 24 h of incubation	70.56%±8.18% (SD)	–
truncated human wild-type Lipocalin-type prostaglandin D synthase (L-PGDS) (enzyme, UniProt P41222 23-190, looked up, C-terminal His6 tag) Prostaglandin-H2 D-isomerase: APEAQVSVQPNFQQDKFLGRWFSAGLASNSSWLREKKAALSMCKSVVAPATDGGLNLTSTFLRKNQCETRTMLLQPAGSLGSYSYRSPHWGSTYSVSVVETDYDQYALLYSQGSKGPGEDFRMATLYSRTQTPRAELKEKFTAFCKAQGFTEDTIVFLPQTDKCMTEQ	–	significant (p<0.05) retention of disaggregation activity across all L-PGDS mutants after 24 h of incubation	68.78%±18.20% (SD)	ThT fluorescence intensity relative to the G623R control after 48 h (fibrillation inhibition assay, 10 µM L-PGDS : 50 µM monomeric peptide) [5]: 52.5%
